Results from CN111320686A.
Several values for one entry are separate records, joined by “and”; a condition that tells them apart may be missing. Identical values can stand only once.

What was measured:
[1] = biological target: H7N9病毒的HA蛋白(购自ACROBiosystems) (H7N9 influenza virus)
[2] = biological target: H7N9病毒的HA蛋白(购自ACROBiosystems) (H7N9 influenza virus); remark: listed apart in the source
[3] = biological target: H7N9病毒 A/Anhui/1/2013 的血凝素HA (on live virus) (H7N9 influenza virus A/Anhui/1/2013); assay: cell-based or functional assay

B1: 抗H7N9全人源单克隆抗体2G3 (antibody, V domains shown)
VH: QVQLVESGAEVKKPGASVKVSCKASGYIFTSYEINWVRQATGQGLEWMGWMNPESGETGFAQKFQGRVTMTRNTSITTAYMELSSLTSEDTAVYYCATGNAECSGGSCYNWFEPWGQGTLVTVSS
VL: SSELTQDPAVSVALGQTVRITCQGDKLKSYYASWYQQKPGQAPVLVIYGRNNRPSGIPDRFSGSSSGNTASLTITGAQAEDEADYYCNSKETSGYHLVFGGGTKLTVLV
B1 was tested, and the 450nm (OD) [1] was 1.6 OD 450nm and 2 OD 450nm and 1.78 OD 450nm, the Kd [2] was 2.3 nM and the 微量中和-ELISA (MDCK细胞, 100TCID50 病毒) IC50 [3] was 0.0711 µg/mL.
